Consider two substances from PMC8886817.

As a reminder, the stoichiometry N is a count of units in the complex or per binding partner. In general, koff refers to the first-order rate constant of dissociation. A high value points to fast dissociation.

The target in experiment [1] is GST-549-SNAP-N-IQGAP1 (GST-SNAP-N-IQGAP1-6His, 1–522) (UniProt P46940). The experiment can be described thus: single-molecule step photobleaching.
For experiment [2], the target named is Rabbit skeletal muscle actin (RMA), as actin filaments (F-actin) (rabbit) (UniProt P68135). The experiment in a line: single-molecule microfluidics-assisted TIRF.
The target is the same in experiment [3]. The experiment can be described thus: open-flow TIRF microscopy of single filament growth.

In experiment [1], “GST-549-SNAP-N-IQGAP1 (GST-SNAP-N-IQGAP1-6His, 1–522) (from UniProt P46940 1-522) (domain or fragment)” had a stoichiometry N of 2. In addition, in experiment [2], the average dwell time on filament sides is 6.8 min and the off-rate constant (koff) is 0.0025 s⁻¹.
In turn, “GST-C-IQGAP1 (675–1657) (from UniProt P46940 675-1657) (domain or fragment)” came in with an average pause time in experiment [3] of 14.7 s.
